Four molecules from publication doi:10.1101/2020.05.07.057075 (bioRxiv, 2020) can be followed below.

B1: NPM(225-294) construct, C-terminal globular domain (domain or fragment)
chain: QESFKKQEKTPKTPKGPSSVEDIKAKMQASIEKGGSLPKVEAKFINYVKNCFRMTDQEAIQDLWQWRKSL
B2: cytochrome c (Cc), recombinant, purified (natural protein)
chain: not shown
modifications: heme group
B3: NPM oligomerization domain NPM(1-130), His-tagged (domain or fragment)
chain: MEDSMDMDMSPLRPQNYLFGCELKADKDYHFKVDNDENEHQLSLRTVSLGAGAKDELHIVEAEAMNYEGSPIKVTLATLKMSVQPTVSLGGFEITPPVVLRLKCGSGPVHISGQHLVAVEEDAESEDEEE

Series [1] addresses B2. Kind of series: ITC. On the technique in general: Isothermal titration calorimetry measures the heat released or taken up as one component is titrated into another.
Series [2] addresses NPM oligomerization domain core NPM(9-122) (UniProt P06748 9-122). The series is described as follows: ITC.
Series [3] has as its target NPM(123-294) construct without the oligomerization domain (UniProt P06748 123-294). Kind of series: ITC.
Series [4] concerns the target T1, full-length nucleophosmin NPM(1-294), recombinant (UniProt P06748 1-294). Kind of series: ITC.
The target in series [5] is T1, full-length nucleophosmin NPM(1-294), …. The series is described as follows: negative-stain electron microscopy with 3D reconstruction.
Series [6] deals with the molecule itself. The series is described as follows: SDS-PAGE.

Values joined by “and” are separate entries in the source; they are usually repeats but may differ in a detail not shown here. Equal entries are not always repeated.

T1 sequence (P06748 whole entry): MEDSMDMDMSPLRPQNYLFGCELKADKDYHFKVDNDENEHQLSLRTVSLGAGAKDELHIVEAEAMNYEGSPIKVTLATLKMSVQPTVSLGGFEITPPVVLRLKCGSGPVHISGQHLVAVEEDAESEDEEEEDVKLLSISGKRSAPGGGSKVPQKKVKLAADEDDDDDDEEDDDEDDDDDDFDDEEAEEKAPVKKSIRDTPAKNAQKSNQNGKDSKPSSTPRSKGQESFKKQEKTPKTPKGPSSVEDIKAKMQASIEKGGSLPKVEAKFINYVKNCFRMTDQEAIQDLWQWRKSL

With B1, the Kd (in general, the concentration at which binding is half-saturated) in series [1] is about 200 µM.
As for B2, the “fold decrease of affinity (by KD) upon addition of 0.1 M KCl” value in series [2] stood at 3 fold; in series [4] it was 12 fold. For the same molecule, the stoichiometry N (commonly the number of molecules, sites or subunits per partner or assembly) in series [2] was 2 Cc:NPM and 1 Cc:NPM; in series [4], 1 Cc:NPM and 2 Cc:NPM; in series [5], 1 Cc per NPM pentamer. In series [3], binding was characterised by a dissociation constant (Kd) of 13 µM.
As to MGRRFLVTVRIQRAGRPLQERVFLVKFVRSRRPRTAS [p19ARF(1-37) domain], in series [4], the Kd was 0.28 µM and the “stoichiometry N” value turned out to be 5.6.
Take B3: in series [6], the “stoichiometry N” value turned out to be 5.
